Experimental findings from patent US20150246949A1, “Desmoglein 2 (DSG2) Binding Proteins and Uses Therefor” (UNIVERSITY OF WASHINGTON THROUGH ITS CENTER FOR …, priority 2012, published 2015) are described below.

As a reminder, the koff is a measure of how fast the partners let go of each other. A word on the kon: it is the rate constant with which the complex forms. The term Kd denotes the concentration at which binding is half-saturated.

In one assay the target is T1, soluble CD46 (UniProt P15529 35-343).
T1 construct: also called sCD46
T1 sequence: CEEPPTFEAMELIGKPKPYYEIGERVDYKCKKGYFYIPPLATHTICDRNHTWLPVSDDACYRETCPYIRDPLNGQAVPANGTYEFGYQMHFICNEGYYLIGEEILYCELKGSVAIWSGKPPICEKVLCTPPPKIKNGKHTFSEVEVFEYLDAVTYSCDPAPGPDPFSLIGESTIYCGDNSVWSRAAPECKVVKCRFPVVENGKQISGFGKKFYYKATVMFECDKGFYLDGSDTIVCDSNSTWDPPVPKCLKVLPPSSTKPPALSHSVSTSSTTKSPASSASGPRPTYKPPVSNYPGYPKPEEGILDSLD
The experiment in a line: Western blot, soluble CD46 as probe, anti-CD46 mAb.

The target in assay [1] is T2, Recombinant human DSG2 protein (Leinco Technologies) (human, UniProt Q14126 50-609).
T2 construct: also called soluble DSG2; soluble recombinant DSG2
T2 sequence: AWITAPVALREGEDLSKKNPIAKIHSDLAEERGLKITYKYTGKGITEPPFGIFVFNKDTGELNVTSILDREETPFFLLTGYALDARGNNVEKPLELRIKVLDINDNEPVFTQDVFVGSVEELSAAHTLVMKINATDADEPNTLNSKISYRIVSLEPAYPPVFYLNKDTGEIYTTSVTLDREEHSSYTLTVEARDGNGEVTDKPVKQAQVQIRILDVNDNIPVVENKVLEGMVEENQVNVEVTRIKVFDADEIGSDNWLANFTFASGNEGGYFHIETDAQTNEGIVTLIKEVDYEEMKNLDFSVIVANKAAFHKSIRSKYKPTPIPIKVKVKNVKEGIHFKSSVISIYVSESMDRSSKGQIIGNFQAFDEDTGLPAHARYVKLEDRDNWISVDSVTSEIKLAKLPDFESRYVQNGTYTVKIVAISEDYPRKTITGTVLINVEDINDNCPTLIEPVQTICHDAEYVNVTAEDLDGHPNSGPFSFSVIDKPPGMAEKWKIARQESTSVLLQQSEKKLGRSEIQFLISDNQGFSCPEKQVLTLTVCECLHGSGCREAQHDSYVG
The experiment in a line: Western blot of the blotted knob probed with soluble hDSG2, anti-DSG2 (6D8), HRP-anti-mouse IgG [upper panel].

In assay [2] the target is T2, Recombinant human DSG2 protein (Leinco …). The assay is described as follows: SPR (BIAcore 3000), DSG2 immobilised on CM4 chip, knob injected. (Surface plasmon resonance follows binding to a sensor surface in real time, without labels.)
Assay [3] shares this target. The assay is described as follows: SPR (BIAcore 3000), DSG2 immobilised on the sensor chip, knobs injected at 2.5 to 10 µg/ml, BIAeval.
The target is the same in assay [4]. The experiment in a line: SPR (BIAcore 3000), DSG2 immobilised, BIAeval; as printed in this row, but kd/ka of the row gives 24.9 nM and paragraph 239 gives 405-fold over wt: the KD cells of Y250F and V239D look interchanged on the sheet.
Assay [5] has the same target. The assay is described as follows: SPR (BIAcore 3000), DSG2 immobilised, BIAeval; as printed in this row, but kd/ka of the row gives 11.4 nM and paragraph 239 gives 885-fold over wt: the KD cells of Y250F and V239D look interchanged on the sheet.
In assay [6] the target is T3, human DSG2 on cells (HeLa cells; polarized T84 cells) (human, UniProt Q14126 50-1118).
T3 sequence: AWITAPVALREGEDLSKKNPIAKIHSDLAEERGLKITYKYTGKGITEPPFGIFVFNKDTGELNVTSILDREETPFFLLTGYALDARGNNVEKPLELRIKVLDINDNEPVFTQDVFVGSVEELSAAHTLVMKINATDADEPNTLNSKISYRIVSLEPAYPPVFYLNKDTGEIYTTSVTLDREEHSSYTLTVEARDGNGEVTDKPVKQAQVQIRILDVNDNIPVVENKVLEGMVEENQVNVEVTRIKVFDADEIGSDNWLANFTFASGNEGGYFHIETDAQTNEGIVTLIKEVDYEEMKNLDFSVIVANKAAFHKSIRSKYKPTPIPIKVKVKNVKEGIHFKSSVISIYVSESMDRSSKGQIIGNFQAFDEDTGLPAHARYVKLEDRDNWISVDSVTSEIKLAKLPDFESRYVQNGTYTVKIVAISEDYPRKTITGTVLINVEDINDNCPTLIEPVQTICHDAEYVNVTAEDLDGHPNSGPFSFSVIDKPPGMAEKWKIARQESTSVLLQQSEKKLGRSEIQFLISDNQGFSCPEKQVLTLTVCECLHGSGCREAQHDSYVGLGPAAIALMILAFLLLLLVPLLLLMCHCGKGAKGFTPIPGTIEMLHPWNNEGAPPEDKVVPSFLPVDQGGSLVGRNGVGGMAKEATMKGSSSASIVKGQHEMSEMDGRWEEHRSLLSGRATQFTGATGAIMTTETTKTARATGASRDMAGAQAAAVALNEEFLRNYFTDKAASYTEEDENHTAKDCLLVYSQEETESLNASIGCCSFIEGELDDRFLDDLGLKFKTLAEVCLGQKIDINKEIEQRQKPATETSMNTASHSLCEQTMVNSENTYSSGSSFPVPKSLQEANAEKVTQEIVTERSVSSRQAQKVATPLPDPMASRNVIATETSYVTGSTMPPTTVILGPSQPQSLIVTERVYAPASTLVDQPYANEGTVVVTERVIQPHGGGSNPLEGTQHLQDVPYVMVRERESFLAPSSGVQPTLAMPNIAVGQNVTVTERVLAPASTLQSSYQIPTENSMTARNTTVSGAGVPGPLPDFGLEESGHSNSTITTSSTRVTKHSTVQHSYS
The assay is described as follows: cell-based or functional assay.

The target in assay [7] is T3, human DSG2 on cells (HeLa cells; …). The assay is described as follows: cell-based or functional assay. The source holds these as a separate data set.
The target of assay [8] is T2, Recombinant human DSG2 protein (Leinco …). The assay is described as follows: not given; SPR on immobilised DSG2 by the context (FIG. 7).

B1: Ad3-S/Kn (ligand)
chain: NSIALKNNTLWTGPKPEANCIIEYGKQNPDSKLTLILVKNGGIVNGYVTLMGASDYVNTLFKNKNVSINVELYFDATGHILPDSSSLKTDLELKYKQTADFSARGFMPSTTAYPFVLPNAGTHNENYIFGQCYYKASDGALFPLEVTVMLNKRLPDSRTSYVMTFLWSLNAGLAPETTQATLITSPFTFSYIREDD
notes: also called wild-type Ad3 fibers
For the molecule B1, the binding result (with soluble CD46; in assay [1]) was “no binding” throughout.

B2: Ad3 fiber knob mutant V239D without dimerization domain (ligand)
chain: NKLCSKLGNGLTFDSSNSIALKNNTLWTGPKPEANCIIEYGKQNPDSKLTLILVKNGGIVNGYVTLMGASDYVNTLFKNKNVSINVELYFDATGHILPDSSSLKTDLELKYKQTADFSARGFMPSTTAYPFDLPNAGTHNENYIFGQCYYKASDGALFPLEVTVMLNKRLPDSRTSYVMTFLWSLNAGLAPETTQATLITSPFTFSYIREDD
notes: range 108-319; also called V239D/noDD; not shown: N-terminal 6-His tag of pQE30 and linker
B2: in assay [2], the “fold higher affinity than wt Ad3knob/noDD” value was 405 fold. In assay [3], the koff is 0.00266 s⁻¹ and the on-rate (kon) was found to be 107000 M⁻¹ s⁻¹. In addition, the equilibrium dissociation constant (Kd) in [4] worked out at 11.4 nM.

B3: Ad3 fiber knob mutant Y250F without dimerization domain (ligand)
chain: NKLCSKLGNGLTFDSSNSIALKNNTLWTGPKPEANCIIEYGKQNPDSKLTLILVKNGGIVNGYVTLMGASDYVNTLFKNKNVSINVELYFDATGHILPDSSSLKTDLELKYKQTADFSARGFMPSTTAYPFVLPNAGTHNENFIFGQCYYKASDGALFPLEVTVMLNKRLPDSRTSYVMTFLWSLNAGLAPETTQATLITSPFTFSYIREDD
notes: range 108-319; also called Y250F/noDD; not shown: N-terminal 6-His tag of pQE30 and linker
As for B3, the “fold higher affinity than wt Ad3knob/noDD” value in assay [2] was 885 fold. In addition, in assay [3], the koff stood at 0.00264 s⁻¹ and the kon came out at 232000 M⁻¹ s⁻¹. In addition, the Kd in [5] was found to be 24.9 nM.

B4: JO-1 (self-dimerizing trimeric wild-type Ad3 fiber knob) (designed binder)
chain: MKVSALKEKVSALKEKVSALKEKVSALKEKVSALKEGSGGGSGGGSGGGSNSIALKNNTLWTGPKPEANCIIEYGKQNPDSKLTLILVKNGGIVNGYVTLMGASDYVNTLFKNKNVSINVELYFDATGHILPDSSSLKTDLELKYKQTADFSARGFMPSTTAYPFVLPNAGTHNENYIFGQCYYKASDGALFPLEVTVMLNKRLPDSRTSYVMTFLWSLNAGLAPETTQATLITSPFTFSYIREDD
B4: the “IC50 (read off the curve), % GFP-positive cells after Ad3-GFP infection of HeLa cells” value in assay [6] was about 5 µg/mL. Further, the “IC50 (read off the curve), GFP MFI after Ad3-GFP infection of HeLa cells” value in assay [7] was about 0.6 µg/mL.

B5: JO-4 (affinity-enhanced version of JO-1) (designed binder)
chain: MRGSHHHHHHGSKVSALKEKVSALKEKVSALKEKVSALKEKVSALKEGSGGGSGGGSGGGSNSIALKNNTLWTGPKPEANCIIEYGKQNPDSKLTLILVKNGGIVNGYVTLMGASDYVNTLFKNKNVSINVELYFDATGHILPDSSSLKTDLELKYKQTADFSARGFMPSTTAYPFVLPNAGTHNENFIFGQCYYKASDGALFPLEVTVMLNKRLPDSRTSYVMTFLWSLNAGLAPETTQATLITSPFTFSYIREDD
In the case of B5, the Kd in assay [8] is 11.4 nM.
